15 molecules from patent US20070071745A1 (Hoffmann-La Roche, published 2007) can be followed below.

The target of assay [1] is T1, human CD20 (human, UniProt P11836 1-297).
T1 construct: whole, on cells; also called human CD20 antigen; target antigen (CD20)
T1 sequence (looked up): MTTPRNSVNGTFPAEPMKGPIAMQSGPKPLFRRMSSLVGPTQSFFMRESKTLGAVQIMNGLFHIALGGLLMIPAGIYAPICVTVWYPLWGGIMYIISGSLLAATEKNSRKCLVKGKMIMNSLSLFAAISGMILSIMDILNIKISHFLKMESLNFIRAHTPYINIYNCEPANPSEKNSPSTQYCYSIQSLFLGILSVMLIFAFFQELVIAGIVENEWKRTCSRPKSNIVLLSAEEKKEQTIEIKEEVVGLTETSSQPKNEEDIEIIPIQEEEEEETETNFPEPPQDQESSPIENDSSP
Kind of assay: flow cytometry on Raji B-cell lymphoma cells (FIG. 11).
Procedure: (§1) 200,000 cells in 180 μl FACS buffer (PBS containing 2% FCS and 5 mM EDTA) were transferred to 5 ml polystyrene tubes. Next, 20 μl of 10-fold concentrated anti-CD20 antibody samples (1-5000 ng/ml final concentration) or PBS only were added, and the tubes were incubated at 4° C. for 30 min. Subsequently, samples were washed twice with FACS buffer and pelleted at 300×g for 3 min. Supernatant was aspirated off and cells were taken up in 100 μl FACS buffer. Next, 1 μl anti-Fc-specific F(ab′)2-FITC fragments (Jackson Immuno Research Laboratories, USA) was added and the tubes were incubated at 4° C. for 30 min. Samples were washed twice with FACS buffer and taken up in 500 μl of FACS buffer containing 0.5 μg/ml PI for analysis by Flow Cytometry. Binding was determined by plotting the geometric mean fluorescence against the antibody concentrations.

Assay [2] concerns the target T1, human CD20. Kind of assay: flow cytometry on Raji B-cell lymphoma cells (FIG. 22).
Procedure: as §1
For assay [3], the target named is T1, human CD20. Description: flow cytometry on Raji B-cell lymphoma cells (FIG. 2).
Procedure: as §1
The target of assay [4] is T1, human CD20. Description: flow cytometry on Raji B-cell lymphoma cells (FIGS. 2, 9 to 13).
Procedure: as §1
In assay [5] the target is T1, human CD20. Description: flow cytometry on Raji B-cell lymphoma cells (FIGS. 2, 9 to 13); the same paragraph adds that the binding of B-HL11 to B-HL17 does not differ drastically in EC50 and stoichiometry.
Procedure: as §1
For assay [6], the target named is T1, human CD20. Kind of assay: flow cytometry on Raji B-cell lymphoma cells (methods described above).
Procedure: as §1

Positions count from the first letter of the chain named. Numbers in names are those of the source.

B1: B-HH1 paired with the BKV1 humanized B-ly1 light chain (antibody, human IgG1, V domains shown)
VH: QVQLVQSGAEVKKPGSSVKVSCKASGYTFSYSWMSWVRQAPGQGLEWMGRIFPGDGDTDYAQKFQGRVTITADKSTSTAYMELSSLRSEDTAVYYCARNVFDGYWLVYWGQGTLVTVSS
VL: DIVMTQTPLSLPVTPGEPASISCRSSKSLLHSNGITYLYWYLQKPGQSPQLLIYQMSNLVSGVPDRFSGSGSGTDFTLKISRVEAEDVGVYYCAQNLELPYTFGGGTKVEIKR
notes: also called BHH1-BKV1
B1: the binding result with human CD20 [1] is “binds”.

B2: B-HH8 with the BKV1 light chain (antibody, human IgG1, V domains shown)
VH: B1 VH with S16A, S30T, S35N, A61N, Q62G, Q65K
VL: B1 VL
As for B2, the binding result with human CD20 [2] is “binds”.

B3: B-HL12 (G9A, V48M) paired with the BKV1 light chain (antibody, human IgG1, V domains shown)
VH: EVQLVESGAGLVKPGGSLRLSCAASGFTFSYSWMNWVRQAPGKGLEWMGRIFPGDGDTDYNGKFKGRVTITADKSTSTAYMELSSLRSEDTAVYYCARNVFDGYWLVYWGQGTLVTVSS
VL: B1 VL
In the case of B3, the binding result with human CD20 [3] is recorded as “binds”.

B4: B-HH3 paired with the BKV1 humanized B-ly1 light chain (antibody, human IgG1, V domains shown)
VH: B1 VH with T28A, S35N, A61N, Q62G, Q65K, Y95L
VL: B1 VL
notes: also called BHH3-BKV1
Take B4: the binding result in the assay with human CD20 [1] is “binds”.

B5: BHH2-BKV1 humanized IgG1 B-ly1 anti-human CD20 antibody (antibody, V domains shown)
VH: B1 VH with T28A, S35N, A61N, Q62G, Q65K
VL: B1 VL
notes: Non-glycoengineered form; also called BHH2-BKV1-wt; humanized B-ly1
On to B5, for which, in the assay with human CD20 [4], the binding result is “binds”.

B6: BHL17-BKV1 (antibody, human IgG1, V domains shown)
VH: B3 VH with A9G
VL: B1 VL
notes: also called BHL17-BKV1 W1; B-HL17 (V48M)
As to B6, the binding result with human CD20 [3] is “binds”.

B7: BHL11-BKV1 (antibody, human IgG1, V domains shown)
VH: B3 VH with E1Q, A9G, M48V
VL: B1 VL
notes: also called B-HL11 (having the mutation E1Q)
With B7, the binding result with human CD20 [5] was “binds”.

B8: BHH2-B (K12V) paired with a BKV1 light chain (antibody, human IgG1, V domains shown)
VH: B1 VH with K12V, T28A, S35N, A61N, Q62G, Q65K
VL: B1 VL
Consider B8, for which the binding result with human CD20 [6] is recorded as “binds”.

B9: BHL8-BKV1 (antibody, human IgG1, V domains shown)
VH: B3 VH with A9G, M48V
VL: B1 VL
notes: also called BHL8-BKV1 wt
Consider B9, for which the binding result in the assay with human CD20 [4] is “binds”.

B10: BHL14-BKV1 (antibody, human IgG1, V domains shown)
VH: B3 VH with A9G, V12K
VL: B1 VL
notes: also called B-HL14 (V12K, V48M)
As for B10, the binding result in the assay with human CD20 [3] was “binds”.

B11: BHL16-BKV1 (antibody, human IgG1, V domains shown)
VH: B3 VH with A9G, L20V
VL: B1 VL
notes: also called BHL16-BKV1 W1; B-HL16 (L20V, V48M)
On to B11, for which, in the assay with human CD20 [3], the binding result is listed as “binds”.

B12: BHL13-BKV1 (antibody, human IgG1, V domains shown)
VH: B3 VH with A9G, L11V
VL: B1 VL
notes: also called B-HL13 (L11V, V48M)
On to B12, for which the binding result in the assay with human CD20 [3] is listed as “binds”.

B13: B-HH9 with the BKV1 light chain (antibody, human IgG1, V domains shown)
VH: B1 VH with S16A, S35N, A61N, Q62G, Q65K
VL: B1 VL
Regarding B13, the binding result with human CD20 [2] was “binds”.

B14: BHL15-BKV1 (antibody, human IgG1, V domains shown)
VH: B3 VH with A9G, G16S
VL: B1 VL
notes: also called BHL15-BKV1 W1; B-HL15 (G16S, V48M)
Turning to B14, the binding result in the assay with human CD20 [3] is recorded as “binds”.

B15: BHH2-A (V11L) paired with a BKV1 light chain (antibody, human IgG1, V domains shown)
VH: B1 VH with V11L, T28A, S35N, A61N, Q62G, Q65K
VL: B1 VL
For the molecule B15, the binding result with human CD20 [6] is recorded as “binds”.
